Test results as given in publication PMC9482650, “Quantitative fragmentomics allow affinity mapping of interactomes” (Nature Communications, 2022).
Residue numbers refer to the chain shown, from its start.

T1: APBA2_2, Q99767
T1 sequence (Q99767 654-744, limits assumed, looked up): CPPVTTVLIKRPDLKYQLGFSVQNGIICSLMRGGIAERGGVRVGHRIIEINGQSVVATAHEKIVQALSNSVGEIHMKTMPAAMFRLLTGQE

T2: APBA3_1, O96018
T2 sequence (O96018 389-490, limits assumed, looked up): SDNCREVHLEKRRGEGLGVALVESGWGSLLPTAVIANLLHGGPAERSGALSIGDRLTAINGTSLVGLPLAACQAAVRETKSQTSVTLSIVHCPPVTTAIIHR

T3: GRIP1_4, Q9Y3R0
T3 sequence (Q9Y3R0 467-571, limits assumed, looked up): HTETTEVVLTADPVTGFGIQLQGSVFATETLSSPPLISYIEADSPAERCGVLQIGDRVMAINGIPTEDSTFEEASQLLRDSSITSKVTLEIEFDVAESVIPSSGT

T4: HTRA3, P83110
T4 sequence (P83110 354-453, limits assumed, looked up): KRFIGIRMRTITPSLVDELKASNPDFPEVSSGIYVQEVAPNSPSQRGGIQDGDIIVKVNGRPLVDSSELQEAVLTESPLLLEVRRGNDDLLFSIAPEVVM

T5: LIN7B, Q9HAP6
T5 sequence (Q9HAP6 88-185, limits assumed, looked up): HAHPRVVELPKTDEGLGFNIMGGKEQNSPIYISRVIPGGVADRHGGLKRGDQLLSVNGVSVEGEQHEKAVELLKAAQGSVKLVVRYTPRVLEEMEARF

T6: LIN7C, Q9NUP9
T6 sequence (Q9NUP9 88-185, limits assumed, looked up): T5 sequence (Q9HAP6 88-185, limits assumed, looked up) with A2S, D13E, V35I, V40I, Q65H, S79K, R89K, A96S

T7: MPDZ_5, O75970
T7 sequence (O75970 695-796, limits assumed, looked up): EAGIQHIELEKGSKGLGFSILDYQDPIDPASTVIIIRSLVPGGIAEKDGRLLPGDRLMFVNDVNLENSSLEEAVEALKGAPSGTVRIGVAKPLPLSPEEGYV

T8: NHERF3_3, Q5T2W1
T8 sequence (Q5T2W1 238-333, limits assumed, looked up): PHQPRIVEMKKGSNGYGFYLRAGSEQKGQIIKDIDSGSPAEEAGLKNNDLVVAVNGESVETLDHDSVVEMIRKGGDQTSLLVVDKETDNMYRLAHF

T9: PDZD7_3, Q9H5P4
T9 sequence (Q9H5P4 857-944, limits assumed, looked up): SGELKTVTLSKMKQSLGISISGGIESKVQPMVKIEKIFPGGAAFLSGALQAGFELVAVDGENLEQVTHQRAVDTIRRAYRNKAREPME

B1: FAT1, Q14517 (peptide)
chain: PLDSQQHTEV

Target: AHNAK1, Q09666
Test: holdup assay
Parameters: key: below the threshold = too weak to quantify, mostly under pKd 3.1 to 4
Conditions: plain residues with an end cap or a label only (N-terminal biotin on a linker: ado-ado)

Sequence of AHNAK1, Q09666 (Q09666 4-100): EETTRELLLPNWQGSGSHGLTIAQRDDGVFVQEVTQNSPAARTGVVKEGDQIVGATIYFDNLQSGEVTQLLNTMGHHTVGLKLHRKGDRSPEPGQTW

| pKd | Binder |
| --- | --- |
| below the threshold | B1 |

Target: T1, APBA2_2, Q99767
Test: holdup assay
Parameters: key: below the threshold = too weak to quantify, mostly under pKd 3.1 to 4
Conditions: plain residues with an end cap or a label only (N-terminal biotin on a linker: ado-ado)

| pKd | Binder |
| --- | --- |
| below the threshold | B1 |

Target: T2, APBA3_1, O96018
Test: holdup assay
Parameters: key: below the threshold = too weak to quantify, mostly under pKd 3.1 to 4
Conditions: plain residues with an end cap or a label only (N-terminal biotin on a linker: ado-ado)

| pKd | Binder |
| --- | --- |
| below the threshold | B1 |

Target: ARHGEF12, Q9NZN5-2
Test: holdup assay
Parameters: key: below the threshold = too weak to quantify, mostly under pKd 3.1 to 4
Conditions: plain residues with an end cap or a label only (N-terminal biotin on a linker: ado-ado)

Sequence of ARHGEF12, Q9NZN5-2 (Q9NZN5 other isoform, or with tags, fused parts or gaps): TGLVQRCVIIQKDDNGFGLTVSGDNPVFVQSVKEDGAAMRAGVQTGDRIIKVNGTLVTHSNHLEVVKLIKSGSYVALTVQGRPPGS

| pKd | Binder |
| --- | --- |
| 4.42 | B1 |

Target: DLG1_1, Q12959
Test: holdup assay
Parameters: key: below the threshold = too weak to quantify, mostly under pKd 3.1 to 4
Conditions: plain residues with an end cap or a label only (N-terminal biotin on a linker: ado-ado)

| pKd | Binder |
| --- | --- |
| 4.37 | B1 |

Target: DLG2_2, Q15700
Test: holdup assay
Parameters: key: below the threshold = too weak to quantify, mostly under pKd 3.1 to 4
Conditions: plain residues with an end cap or a label only (N-terminal biotin on a linker: ado-ado)

Sequence of DLG2_2, Q15700 (Q15700 189-283): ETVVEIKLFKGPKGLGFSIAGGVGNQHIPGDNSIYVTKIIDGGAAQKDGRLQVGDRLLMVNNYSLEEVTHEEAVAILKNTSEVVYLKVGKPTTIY

| pKd | Binder |
| --- | --- |
| 4.62 | B1 |

Target: DLG4_2, P78352
Test: holdup assay
Parameters: key: below the threshold = too weak to quantify, mostly under pKd 3.1 to 4
Conditions: plain residues with an end cap or a label only (N-terminal biotin on a linker: ado-ado)

Sequence of DLG4_2, P78352 (P78352 155-259): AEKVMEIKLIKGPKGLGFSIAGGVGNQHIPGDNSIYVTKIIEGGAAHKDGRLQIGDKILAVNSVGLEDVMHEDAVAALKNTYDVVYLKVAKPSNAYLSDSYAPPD

| pKd | Binder |
| --- | --- |
| 4.8 | B1 |

Target: DLG4_3, P78352
Test: holdup assay
Parameters: key: below the threshold = too weak to quantify, mostly under pKd 3.1 to 4
Conditions: plain residues with an end cap or a label only (N-terminal biotin on a linker: ado-ado)

Sequence of DLG4_3, P78352 (P78352 306-403): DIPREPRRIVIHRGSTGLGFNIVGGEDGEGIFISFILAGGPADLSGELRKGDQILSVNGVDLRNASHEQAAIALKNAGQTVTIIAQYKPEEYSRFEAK

| pKd | Binder |
| --- | --- |
| below the threshold | B1 |

Target: FRMPD3, Q5JV73
Test: holdup assay
Parameters: key: below the threshold = too weak to quantify, mostly under pKd 3.1 to 4
Conditions: plain residues with an end cap or a label only (N-terminal biotin on a linker: ado-ado)

Sequence of FRMPD3, Q5JV73 (Q5JV73 12-100): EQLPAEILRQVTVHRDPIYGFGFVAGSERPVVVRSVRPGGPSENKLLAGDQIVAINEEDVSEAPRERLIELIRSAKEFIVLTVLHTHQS

| pKd | Binder |
| --- | --- |
| below the threshold | B1 |

Target: T3, GRIP1_4, Q9Y3R0
Test: holdup assay
Parameters: key: below the threshold = too weak to quantify, mostly under pKd 3.1 to 4
Conditions: plain residues with an end cap or a label only (N-terminal biotin on a linker: ado-ado)

| pKd | Binder |
| --- | --- |
| below the threshold | B1 |

Target: GRIP2_7, Q9C0E4
Test: holdup assay
Parameters: key: below the threshold = too weak to quantify, mostly under pKd 3.1 to 4
Conditions: plain residues with an end cap or a label only (N-terminal biotin on a linker: ado-ado)

Sequence of GRIP2_7, Q9C0E4 (Q9C0E4 934-1023): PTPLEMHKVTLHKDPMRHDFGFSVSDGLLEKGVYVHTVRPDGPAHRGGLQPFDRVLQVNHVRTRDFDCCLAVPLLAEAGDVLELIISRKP

| pKd | Binder |
| --- | --- |
| below the threshold | B1 |

Target: HTRA1, Q92743
Test: holdup assay
Parameters: key: below the threshold = too weak to quantify, mostly under pKd 3.1 to 4
Conditions: plain residues with an end cap or a label only (N-terminal biotin on a linker: ado-ado)

Sequence of HTRA1, Q92743 (Q92743 360-477): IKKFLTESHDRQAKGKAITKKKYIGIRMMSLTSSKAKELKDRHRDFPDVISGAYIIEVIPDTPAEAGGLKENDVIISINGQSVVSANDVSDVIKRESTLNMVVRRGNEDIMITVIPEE

| pKd | Binder |
| --- | --- |
| 4 | B1 |

Target: T4, HTRA3, P83110
Test: holdup assay
Parameters: key: below the threshold = too weak to quantify, mostly under pKd 3.1 to 4
Conditions: plain residues with an end cap or a label only (N-terminal biotin on a linker: ado-ado)

| pKd | Binder |
| --- | --- |
| below the threshold | B1 |

Target: IL16_1, Q14005
Test: holdup assay
Parameters: key: below the threshold = too weak to quantify, mostly under pKd 3.1 to 4
Conditions: plain residues with an end cap or a label only (N-terminal biotin on a linker: ado-ado)

Sequence of IL16_1, Q14005 (Q14005 210-306): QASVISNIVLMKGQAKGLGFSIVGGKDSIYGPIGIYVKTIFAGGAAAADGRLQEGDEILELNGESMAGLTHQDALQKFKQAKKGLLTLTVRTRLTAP

| pKd | Binder |
| --- | --- |
| below the threshold | B1 |

Target: IL16_4, Q14005
Test: holdup assay
Parameters: key: below the threshold = too weak to quantify, mostly under pKd 3.1 to 4
Conditions: plain residues with an end cap or a label only (N-terminal biotin on a linker: ado-ado)

Sequence of IL16_4, Q14005 (Q14005 1229-1329): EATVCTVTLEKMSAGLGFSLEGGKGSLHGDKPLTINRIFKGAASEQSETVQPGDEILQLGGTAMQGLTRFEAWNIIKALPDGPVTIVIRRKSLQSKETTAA

| pKd | Binder |
| --- | --- |
| below the threshold | B1 |

Target: Inadl_10, Q8NI35
Test: holdup assay
Parameters: key: below the threshold = too weak to quantify, mostly under pKd 3.1 to 4
Conditions: plain residues with an end cap or a label only (N-terminal biotin on a linker: ado-ado)

Sequence of Inadl_10, Q8NI35 (Q8NI35 1673-1763): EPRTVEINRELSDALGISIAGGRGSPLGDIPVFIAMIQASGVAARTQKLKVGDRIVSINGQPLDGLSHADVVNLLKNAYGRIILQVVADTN

| pKd | Binder |
| --- | --- |
| below the threshold | B1 |

Target: Inadl_5, Q8NI35
Test: holdup assay
Parameters: key: below the threshold = too weak to quantify, mostly under pKd 3.1 to 4
Conditions: plain residues with an end cap or a label only (N-terminal biotin on a linker: ado-ado)

Sequence of Inadl_5, Q8NI35 (Q8NI35 673-780): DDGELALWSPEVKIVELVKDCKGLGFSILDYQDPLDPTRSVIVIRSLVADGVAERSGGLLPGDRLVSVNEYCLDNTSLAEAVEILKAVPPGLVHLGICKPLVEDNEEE

| pKd | Binder |
| --- | --- |
| below the threshold | B1 |

Target: LAP2, Q96RT1
Test: holdup assay
Parameters: key: below the threshold = too weak to quantify, mostly under pKd 3.1 to 4
Conditions: plain residues with an end cap or a label only (N-terminal biotin on a linker: ado-ado)

Sequence of LAP2, Q96RT1 (Q96RT1 other isoform, or with tags, fused parts or gaps): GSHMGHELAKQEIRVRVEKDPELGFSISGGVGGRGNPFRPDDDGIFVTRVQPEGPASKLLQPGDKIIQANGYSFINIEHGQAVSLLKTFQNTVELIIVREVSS

| pKd | Binder |
| --- | --- |
| 3.61 | B1 |

Target: LDB3, O75112
Test: holdup assay
Parameters: key: below the threshold = too weak to quantify, mostly under pKd 3.1 to 4
Conditions: plain residues with an end cap or a label only (N-terminal biotin on a linker: ado-ado)

Sequence of LDB3, O75112 (O75112 1-94): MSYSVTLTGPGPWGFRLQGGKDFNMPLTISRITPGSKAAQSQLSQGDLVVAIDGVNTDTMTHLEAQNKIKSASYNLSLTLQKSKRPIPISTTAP

| pKd | Binder |
| --- | --- |
| below the threshold | B1 |

Target: T5, LIN7B, Q9HAP6
Test: holdup assay
Parameters: key: below the threshold = too weak to quantify, mostly under pKd 3.1 to 4
Conditions: plain residues with an end cap or a label only (N-terminal biotin on a linker: ado-ado)

| pKd | Binder |
| --- | --- |
| below the threshold | B1 |

Target: T6, LIN7C, Q9NUP9
Test: holdup assay
Parameters: key: below the threshold = too weak to quantify, mostly under pKd 3.1 to 4
Conditions: plain residues with an end cap or a label only (N-terminal biotin on a linker: ado-ado)

| pKd | Binder |
| --- | --- |
| below the threshold | B1 |

Target: LNX1_3, Q8TBB1
Test: holdup assay
Parameters: key: below the threshold = too weak to quantify, mostly under pKd 3.1 to 4
Conditions: plain residues with an end cap or a label only (N-terminal biotin on a linker: ado-ado)

Sequence of LNX1_3, Q8TBB1 (Q8TBB1 500-596): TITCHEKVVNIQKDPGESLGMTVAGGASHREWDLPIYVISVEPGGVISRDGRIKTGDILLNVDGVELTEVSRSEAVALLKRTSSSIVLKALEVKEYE

| pKd | Binder |
| --- | --- |
| below the threshold | B1 |

Target: MAGI2_3, Q86UL8
Test: holdup assay
Parameters: key: below the threshold = too weak to quantify, mostly under pKd 3.1 to 4
Conditions: plain residues with an end cap or a label only (N-terminal biotin on a linker: ado-ado)

Sequence of MAGI2_3, Q86UL8 (Q86UL8 600-682): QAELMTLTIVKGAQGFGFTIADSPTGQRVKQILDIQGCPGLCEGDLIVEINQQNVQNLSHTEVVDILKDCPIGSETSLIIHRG

| pKd | Binder |
| --- | --- |
| below the threshold | B1 |

Target: MAGI2_4, Q86UL8
Test: holdup assay
Parameters: key: below the threshold = too weak to quantify, mostly under pKd 3.1 to 4
Conditions: plain residues with an end cap or a label only (N-terminal biotin on a linker: ado-ado)

Sequence of MAGI2_4, Q86UL8 (Q86UL8 772-865): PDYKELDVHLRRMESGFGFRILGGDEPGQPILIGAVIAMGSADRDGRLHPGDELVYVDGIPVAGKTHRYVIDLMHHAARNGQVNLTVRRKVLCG

| pKd | Binder |
| --- | --- |
| below the threshold | B1 |

Target: T7, MPDZ_5, O75970
Test: holdup assay
Parameters: key: below the threshold = too weak to quantify, mostly under pKd 3.1 to 4
Conditions: plain residues with an end cap or a label only (N-terminal biotin on a linker: ado-ado)

| pKd | Binder |
| --- | --- |
| below the threshold | B1 |

Target: T8, NHERF3_3, Q5T2W1
Test: holdup assay
Parameters: key: below the threshold = too weak to quantify, mostly under pKd 3.1 to 4
Conditions: plain residues with an end cap or a label only (N-terminal biotin on a linker: ado-ado)

| pKd | Binder |
| --- | --- |
| below the threshold | B1 |

Target: PDLIM1, O00151
Test: holdup assay
Parameters: key: below the threshold = too weak to quantify, mostly under pKd 3.1 to 4
Conditions: plain residues with an end cap or a label only (N-terminal biotin on a linker: ado-ado)

Sequence of PDLIM1, O00151 (O00151 1-87): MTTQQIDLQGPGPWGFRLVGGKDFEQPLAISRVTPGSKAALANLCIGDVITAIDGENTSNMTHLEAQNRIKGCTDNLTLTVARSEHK

| pKd | Binder |
| --- | --- |
| below the threshold | B1 |

Target: T9, PDZD7_3, Q9H5P4
Test: holdup assay
Parameters: key: below the threshold = too weak to quantify, mostly under pKd 3.1 to 4
Conditions: plain residues with an end cap or a label only (N-terminal biotin on a linker: ado-ado)

| pKd | Binder |
| --- | --- |
| 4.31 | B1 |

Target: PDZRN4_1, Q6ZMN7
Test: holdup assay
Parameters: key: below the threshold = too weak to quantify, mostly under pKd 3.1 to 4
Conditions: plain residues with an end cap or a label only (N-terminal biotin on a linker: ado-ado)

Sequence of PDZRN4_1, Q6ZMN7 (Q6ZMN7 213-318): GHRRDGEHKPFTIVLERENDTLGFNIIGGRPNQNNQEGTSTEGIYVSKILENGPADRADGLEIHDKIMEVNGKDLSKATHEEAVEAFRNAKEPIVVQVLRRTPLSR

| pKd | Binder |
| --- | --- |
| 3.81 | B1 |
